Experimental data published in patent US20220332804A1 (CSL INNOVATION, published 2022).

Assays:
Experiment in all cases: SPR, KD relative to WT C2;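 also: biacore SPR at 37 °C, anti-C2 mAbs captured via immobilised goat anti-human IgG, C2 alanine or serine surface mutants as analytes, 1:1 model fitted, double-referenced sensograms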
human C2 D511A = biological target: T1, human C2 D511A (human, UniProt P06681 21-752)
T1 sequence: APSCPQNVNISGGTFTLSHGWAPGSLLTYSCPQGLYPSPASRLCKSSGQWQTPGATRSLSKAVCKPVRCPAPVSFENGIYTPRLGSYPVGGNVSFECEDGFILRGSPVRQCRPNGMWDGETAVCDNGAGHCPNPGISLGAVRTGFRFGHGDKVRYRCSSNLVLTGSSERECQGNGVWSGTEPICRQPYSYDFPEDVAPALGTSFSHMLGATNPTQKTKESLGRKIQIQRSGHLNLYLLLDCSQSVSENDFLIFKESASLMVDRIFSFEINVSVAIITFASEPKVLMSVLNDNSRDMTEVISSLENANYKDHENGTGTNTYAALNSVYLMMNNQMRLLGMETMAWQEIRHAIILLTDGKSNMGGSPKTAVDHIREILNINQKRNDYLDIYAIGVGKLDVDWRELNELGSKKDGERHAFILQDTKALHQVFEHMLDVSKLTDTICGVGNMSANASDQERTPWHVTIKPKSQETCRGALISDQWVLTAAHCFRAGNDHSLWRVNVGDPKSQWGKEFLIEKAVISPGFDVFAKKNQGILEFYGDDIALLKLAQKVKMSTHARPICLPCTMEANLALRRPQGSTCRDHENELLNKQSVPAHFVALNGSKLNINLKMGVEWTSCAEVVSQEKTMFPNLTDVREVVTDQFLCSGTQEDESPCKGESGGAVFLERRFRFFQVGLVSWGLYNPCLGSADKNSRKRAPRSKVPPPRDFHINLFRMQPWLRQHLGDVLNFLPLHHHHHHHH

human C2 S720A = biological target: T2, human C2 S720A (human, UniProt P06681 21-752)
T2 sequence: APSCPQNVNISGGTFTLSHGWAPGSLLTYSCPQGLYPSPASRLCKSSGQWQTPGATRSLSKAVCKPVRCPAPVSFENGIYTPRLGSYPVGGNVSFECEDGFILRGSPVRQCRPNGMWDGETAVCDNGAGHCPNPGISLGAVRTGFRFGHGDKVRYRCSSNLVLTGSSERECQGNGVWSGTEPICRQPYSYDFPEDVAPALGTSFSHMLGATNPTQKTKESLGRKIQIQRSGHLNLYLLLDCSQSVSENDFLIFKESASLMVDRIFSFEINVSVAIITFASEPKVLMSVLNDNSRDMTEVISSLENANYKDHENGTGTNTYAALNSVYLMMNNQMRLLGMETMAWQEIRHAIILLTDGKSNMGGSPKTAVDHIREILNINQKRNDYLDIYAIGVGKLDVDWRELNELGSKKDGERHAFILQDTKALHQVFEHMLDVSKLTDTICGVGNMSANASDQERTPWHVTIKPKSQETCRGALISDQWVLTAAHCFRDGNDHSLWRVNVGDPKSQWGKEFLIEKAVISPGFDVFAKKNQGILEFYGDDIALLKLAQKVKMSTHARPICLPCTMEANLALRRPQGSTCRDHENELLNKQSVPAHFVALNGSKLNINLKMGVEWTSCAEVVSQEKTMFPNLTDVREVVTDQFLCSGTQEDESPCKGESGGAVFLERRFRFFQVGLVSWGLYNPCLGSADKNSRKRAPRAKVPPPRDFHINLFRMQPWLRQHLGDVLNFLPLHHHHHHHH

human C2 E324A = biological target: T3, human C2 E324A (human, UniProt P06681 21-752)
T3 sequence: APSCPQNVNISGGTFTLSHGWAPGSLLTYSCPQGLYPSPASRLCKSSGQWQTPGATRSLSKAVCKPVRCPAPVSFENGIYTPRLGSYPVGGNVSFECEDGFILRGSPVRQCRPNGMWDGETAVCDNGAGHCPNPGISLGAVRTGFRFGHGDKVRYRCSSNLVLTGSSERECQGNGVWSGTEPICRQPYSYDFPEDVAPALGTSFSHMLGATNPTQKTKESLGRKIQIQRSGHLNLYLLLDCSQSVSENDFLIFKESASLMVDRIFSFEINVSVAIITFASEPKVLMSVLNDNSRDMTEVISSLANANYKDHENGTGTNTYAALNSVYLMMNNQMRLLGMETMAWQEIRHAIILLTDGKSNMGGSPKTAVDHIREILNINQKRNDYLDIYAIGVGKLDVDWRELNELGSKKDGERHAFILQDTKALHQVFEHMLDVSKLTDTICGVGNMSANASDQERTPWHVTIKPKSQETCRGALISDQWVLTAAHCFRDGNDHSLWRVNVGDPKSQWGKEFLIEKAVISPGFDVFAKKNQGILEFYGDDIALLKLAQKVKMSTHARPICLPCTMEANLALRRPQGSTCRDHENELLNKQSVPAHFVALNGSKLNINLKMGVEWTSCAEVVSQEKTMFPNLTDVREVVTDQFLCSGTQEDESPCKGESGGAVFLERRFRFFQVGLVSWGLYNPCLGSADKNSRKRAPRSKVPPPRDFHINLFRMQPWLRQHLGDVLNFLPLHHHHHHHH

human C2 P724A = biological target: T4, human C2 P724A (human, UniProt P06681 21-752)
T4 sequence: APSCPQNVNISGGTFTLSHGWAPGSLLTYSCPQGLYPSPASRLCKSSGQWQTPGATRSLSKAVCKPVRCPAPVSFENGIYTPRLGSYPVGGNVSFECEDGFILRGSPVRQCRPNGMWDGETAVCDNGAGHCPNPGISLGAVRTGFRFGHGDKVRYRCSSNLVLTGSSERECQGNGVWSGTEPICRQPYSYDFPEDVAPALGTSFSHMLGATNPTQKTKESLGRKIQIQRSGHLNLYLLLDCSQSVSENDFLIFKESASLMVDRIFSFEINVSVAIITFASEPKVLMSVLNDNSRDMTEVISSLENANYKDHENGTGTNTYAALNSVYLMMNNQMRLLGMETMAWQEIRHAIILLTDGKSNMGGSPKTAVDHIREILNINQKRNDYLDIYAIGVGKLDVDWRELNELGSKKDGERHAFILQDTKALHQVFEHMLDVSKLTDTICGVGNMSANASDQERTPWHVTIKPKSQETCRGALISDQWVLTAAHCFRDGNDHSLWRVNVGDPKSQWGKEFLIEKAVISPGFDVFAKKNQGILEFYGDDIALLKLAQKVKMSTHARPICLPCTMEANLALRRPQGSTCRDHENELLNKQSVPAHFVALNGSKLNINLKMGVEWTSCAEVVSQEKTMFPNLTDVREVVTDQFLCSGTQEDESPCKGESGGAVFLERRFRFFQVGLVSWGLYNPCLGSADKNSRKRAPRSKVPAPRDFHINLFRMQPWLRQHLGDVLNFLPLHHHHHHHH

B1: RF16-226 (antibody, human IgG4 S228P, lambda)
heavy: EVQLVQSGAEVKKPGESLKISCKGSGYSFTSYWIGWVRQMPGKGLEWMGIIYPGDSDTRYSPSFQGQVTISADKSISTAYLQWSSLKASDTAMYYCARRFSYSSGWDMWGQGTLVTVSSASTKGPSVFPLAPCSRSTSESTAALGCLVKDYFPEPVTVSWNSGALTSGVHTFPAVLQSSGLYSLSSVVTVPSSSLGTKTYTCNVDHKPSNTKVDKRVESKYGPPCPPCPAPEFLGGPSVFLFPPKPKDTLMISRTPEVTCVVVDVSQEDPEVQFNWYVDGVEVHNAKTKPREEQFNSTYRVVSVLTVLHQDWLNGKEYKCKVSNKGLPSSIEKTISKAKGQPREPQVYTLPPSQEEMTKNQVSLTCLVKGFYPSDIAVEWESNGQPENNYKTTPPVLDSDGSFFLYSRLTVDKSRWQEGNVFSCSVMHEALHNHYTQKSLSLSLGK
light: SYELTQPPSVSVSPGQTARITCSGDALTSKYVAWYQQKSGLAPLLVIYEDTRRPSGIPAKFSGSSSGSVATLTISGAHGDDEADYYCYSTDASGHQRVFGGGTKLTVLSQPKAAPSVTLFPPSSEELQANKATLVCLISDFYPGAVTVAWKADGSPVKAGVETTKPSKQSNNKYAASSYLSLTPEQWKSHRSYSCQVTHEGSTVEKTVAPTECS
notes: pH-dependent anti-C2 antibody from a phage display library; also called WT
Fold diff (human C2 D511A): 3 fold | Fold diff (human C2 S720A): 1 fold | Fold diff (human C2 E324A): 1 fold | Fold diff (human C2 P724A): 40 fold
